Reference: patent US20130039916A1
Changes are numbered by the printed parent chain. Blank lines part the entries; values can stand above or below the binder they belong to.

Target: "Bac-wt" human IL-23 (identical to elastikine in sequence, expressed in SF9 cells) (human) (UniProt P29460)
Assay: BIAcore SPR, antibody immobilised on CM5 chip, IL-23 in solution

- Kd: 10 nM
B1: humanized anti-human IL-23p19 antibody 7G10 (antibody, human IgG1, kappa, V domains shown)
VH: QVQLVQSGAEVKKPGASVKVSCKASGYTFTSNVMHWVRQAPGQGLEWMGYINPYNDGTKYNEKFKGRVTMTTDTSTSTAYMELRSLRSDDTAVYYCARNWDVAYWGQGTLVTVSS
VL: DIQMTQSPSSLSASVGDRVTITCRASQSISDYLHWYQQKPGKAPKLLIYYASQSISGVPSRFSGSGSGTDFTLTISSLQPEDFATYYCQNGHSFPFTFGQGTKVEIKR

- Kd: 5.1 nM
B2: humanized anti-human IL-23p19 antibody 6H12 (antibody, human IgG1, kappa, V domains shown)
VH: B1 VH with T30N, S31R, N32Y, V33L, M34I, Y54N, D56A, K59N, V102Q
VL: B1 VL with A51T
